# Source: patent US20160272980
# Test system: PTRI20 meganuclease (engineered, pCLS17038) (artificial)
# Assay: cell_activity
# Conditions: P. tricornutum; 6.9% with SCTREX2 (p124); HGT up to 0.197% with donor (p171); empty vector 0
sequence,measurement,value
GTTTTACGTTGTACGACGTCTAGC (double strand) [PTRI20 target],activity (% mutagenesis),0.032
